One substance from publication PMC11215305 can be followed below.

The test deals with RadD of F. nucleatum subsp. nucleatum ATCC 23726 (Fusobacterium nucleatum subsp. nucleatum ATCC 23726 (endogenous)). The test is described as follows: flow cytometry on cells.

Regarding “human Siglec-7-Ig (from UniProt Q9Y286 19-353) (Fc fusion)”, the percent reduction of binding with 5 mM arginine was 31%.
